B1: B1 (structured_DNA)
DNA: TTGGGTGGGTGGGTGGGTTCAACGACGACGGCATCATC
B2: B0 (ssDNA)
DNA: TTGACTAAGTGCCTTAGTTCAACGACGACGGCATCATC

Target: RNase HI catalytic domain (wild-type) (Bacillus halodurans, UniProt Q9KEI9 59-196)
Experiment: EMSA; 10 uM DNA, 50 uM protein; 100 mM K+; Native 10% PAGE in 1X TBE, 20 mM potassium phosphate, 100 mM KCl, pH 7.0; UV shadowing; temperature not stated
Conditions: protein: recombinant

RNase HI catalytic domain (wild-type), sequence (Q9KEI9 59-196): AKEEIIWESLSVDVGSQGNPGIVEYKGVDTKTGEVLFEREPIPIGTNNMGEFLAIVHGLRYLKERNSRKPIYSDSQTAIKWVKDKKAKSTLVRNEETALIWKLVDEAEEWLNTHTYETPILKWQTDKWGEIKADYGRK

| Binder | binding result (parallel G4 with 3' single-stranded tail) | binding result (single strand) |
| --- | --- | --- |
| B1 | no binding | – |
| B2 | – | no binding |

— paper PMC6520340, “Development of a ribonuclease containing a G4-specific binding motif for programmable RNA cleavage”
